# Results as given in the nanobody polyreactivity screen of Harvey et al. (2022).
# Test: yeast display, Sf9 membrane polyspecificity reagent, FACS + sequencing; frameworks hold sequencing errors
# Summary of the method: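 In a synthetic yeast display library (Saccharomyces cerevisiae BJ5465), nanobody expression was induced with galactose for 36–48 hours. FACS gates were set low and high (top ~1%) using anti-HA fluorescence for expression and streptavidin fluorescence for binding of the Sf9 membrane reagent. Each polyreactivity label is drawn from the gate of origin.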
row,Sequence,polyreactivity (PSR sort gate)
1,QVQLQESGGGLVQAGGSLRLGCAASGNISDAGYMGWYRQAPGKEREFVAAIAAGSNTNYADSVKGRFTISRDNAKNTVYLQMNSLKPEVTAVFYCAVACYARVQYEYWGQGTQVTVNS,low polyreactivity
2,QVQLQESGGGLVQAGGSLRLSCAASGIIFDNPNMGWYRQAPGKERELVATINSGATTNYADSVKGRFTISRDNAKNTVYLQMNSLIPEDTAVYYCAVDLSPTYFYYWGQGTQVTVSS,high polyreactivity
3,QVQLQESGGGLVQAGGSLRLSCAASGNFFDADIMGWYRQAPGKERELVASITDGGSTNYAVSVKGRFTISRGNTKNTVYLLMNCLKPEDTSVYYCAAIAYPDIPTYFDYNSDYFYWGQGTQVTVSS,high polyreactivity
4,QVQLQESGGGLVQAGGSLRLSCAASGNIFDADIMGWYRQAPGKERELVASITDGGSTNYADSVKGRFTISRDNAKNSVYLQMNSLLPEDTAVYYCAAIAYPDIPTYFDYDSDYFYWGQGTQVTVSS,high polyreactivity
5,QVQLQESGGGLVQAGGSLRLSCAASGNIYDADIMGWYRQAPGKERELVTSITDGGSTNYADSVKGRFTISRDNAKNTVYLQMNSLKPEDTAVYYSAAIAYPDIPTSFDYNSDYSYWGQGTQVTVSS,low polyreactivity
6,QVQLQESGGGLVQAGGSLRLSCAASGPISRRSNMGWYRQSPGKESELVTAITRGTNTNYADSVKGRFTISRDNAKYTEYLQMNSLNPEDTAVYYCADYGVLKPSRGDAVFNRYWGQGTQVTVSS,low polyreactivity
7,QVQLQESGGGLVQAGGSLRLSCAASGPISRRSTMGWYRQAPGKERELVTAITRGTNTNYADSVKGRFTISRDNAKNTEYLQMYCLKPEDTAVYYCAAYGVLKPSRGDAVFHRYWGQGTQVTVSS,low polyreactivity
8,QVQLQESGGGLVQAGGSLRLSCAASGSIFHLHIMCWYRQAPGKERESVAAISYGTSTYYADSVKGRFTICRDNAKNTLYLQMNSPKPDDTAVYYCAALFLVSKHHHYWGEGTQVTVSS,low polyreactivity
9,QVQLQESGGGLVQAGGSLRLSCAASGSIFHLHIMCWYRQAPGKERESVAAISYGTSTYYADSVKGRFTICRDNAKNTVYLKMNSPKPDDTAVYYCAALFLVSKHHHYWGEGTQVTVSS,low polyreactivity
10,QVQLQESGGGLVQAGGSLRLSCAASGSIFHLHIMCWYSQAPGKERESVAAISYGTSTYFADSVKGRFTICRDNAKNTVYLQMNSPKPYDTAVYYCAALFLVSKHHHYWGEGTQVTVSS,low polyreactivity
11,QVQLQESGGGLVQAGGSLRLSCAASGSISELRPMGWYRQAPGKERELVAGISTGGSTNYADSVKGRFTISRDNAKNTVYLQMNSLKPEDTAVYYCAAASYGEGTYDYWGQGTQVTVRS,high polyreactivity
12,QVQLQESGGGLVQAGGSLRLSCAASGSISHYIFMGWYRQAPGKEREFVAGIGYGGTTNYADSVKGRFTISRDNAKNTVYLQMNSLKPEDTAMYYCAAREATEFYLYYWGQGTQVTVRS,low polyreactivity
13,QVQLQESGGGLVQAGGSLRLSCAASGSISSPQFMGWYRQAPGIERELVATIANGGITYYADGVKGRFTISRDNAKNTVYLQMNSLKPEDTAVYYCNARSQGWYNTFYYWGQGTQVTVSS,low polyreactivity
14,QVQLQESGGGLVQAGGSLRLSCAASGTIFRFRYMGWHRQAPGKERELVAGINGGTTTYYADSVIGRFTISRDNAIKTVYLQMNSLKPDDTAVYNCAAGASRLTYYDYWGQGTQVTVSS,low polyreactivity
15,QVQLQESGGGLVQAGGSLRLSCAASGTIFRPATKGWYRQAPGKECEFVASITIGTITNYADSVKGRFTISRDNAKNTVYLQMNSLKPEDTAVYYCAVYGTWEVDLYYWGQGTQVTVSS,high polyreactivity
16,QVQLQESGGGLVQAGGSLRLSCAASGTISDSGLMGWYRQAPGKERELVAGISSGGITNYADSVKGRFTISRDNAKNSVDLQMNSLKPEDTAVYWGRGTQVTVSS,low polyreactivity
17,QVQLQESGGGLVQAGGSLRLSCAASGTISPLPAMGWYRQAPGKEPEFVAGIDTGAITNYADSVKGRFTISRDNAKNTVYLQMNSLKPEDTAVYYCAVFPAAYDYYERYYTYWGQGTQVTVIS,low polyreactivity
18,QVQLQESGGGLVQAGGSLRLSCAASGTISTIEPMGWYRQAPGKERELVACIGAGTITNYADSVKGRFTISRDNDTVYLQMNSLKPEDTAVYYCNADGWYALYEWLAVSGYYWGQGTQVTVSS,low polyreactivity
19,QVQLQESGGGLVQAGGSLRLSCAASGYISLAQTIGWYRQAPGKEREFVASIALGSSTYYTDSVKGSFTISRDNAKTTVYLQMNSLKPEDTAVYYCAARVGASYAHDYWGQGTQVAVSS,low polyreactivity
20,QVQLQESGGGLVQAGGSLRLSCAASGYISSWYPMGSYRQAPGKEREFVATIAPGATTYYADSVKGRFTISRDYAKNTVYLQMNSLKPEDTAVYYCAAGPENNDFYSYGGQGTQVTVSS,low polyreactivity
21,QVQLQESGGGLVQAGGSLRLSCAASGYISSWYPMGWYRQAPGKEREFVATIAPGATPYYADSVKGRFTISRDYAKNTVYLQMNSLKPEDTAVYYCAAGPENNDFYSYWGQGTQVTVSS,low polyreactivity
22,QVQLQESGGGLVQAGGSLRLSCAASGYISSWYPMGWYRQAPGKEREFVATLAPGATTYYADSVKGRFTISRDYAKNTVYLQMIRLKPEDTAVYYFAAGPENNDFYSFWGQGSQVTVSS,low polyreactivity

row,Sequence,polyreactivity (PSR sort gate)
1,QVQLQESGGGLVQAGGSLRLSCAASGYISYCVGMGWYRQAPGKEREFVASIAVGSNTYYADSVKGRFTISRYNAKISVYLQRNSLKPEDTAVYYCSVEDSWTYRFDYWGQGTQVTVSS,high polyreactivity
2,QVQLQESGGGLVQAGGSLRLSCAASGYISYFVGMGWYRQAPGKEREFVASIADGSNTYYADSVKGRFTISRDNAKNTVYLQRNSLKPEDTAVYYCAVEDSWTYRFDYWGQGTQVTVSS,high polyreactivity
3,QVQLQESGGGLVQAGGSLRLSCAASGYIYSWYPMGWYLQAPGKEREFVATIAPGATTYYADSVKGRFTISRDYAKNTVYLQMNSLKTEDTAVYYCAAGAENNDFYSYWGHGTQVTVSS,low polyreactivity
4,QVQLQESGGGLVQAGGSLRLSCAESGTIFGWDRMGRYRQAPGKERELVATIDNRGSTNYADSVKGRFTISRDNAKNTVYPQMNSLKPDDTAVYYCAVVGPTPQYHLYWGQGTQVTVSS,high polyreactivity
5,QVQLQESGGGLVQAGGSLRLSCAESGYISHAVEMGWYRQAPGKVHELVASISNGGSTNYADSVKGRFTISRDNAKNTVYLQMNSLKSEDTAVYYCAAWTGQVDIHSYWGQGTQVSVSS,low polyreactivity
6,QVQLQESGGGLVQAGGSLRLSCAQSGTICGWDRMGRYRQAPGKERELVATIDNRGSTNYADSVKGRFTISRDNANNTVYPQKISLKPDDTAVDYCAVVGPTPQYHLYWGQGTQVTVCS,high polyreactivity
7,QVQLQESGGGLVQAGGSLRLSCSASGYISHADEMGWYRQAPGKEHELVASISNGGSTNYADSVKGRFTISRDNAKNTVYLQMNSLKSEDTAVYYCAAWTGQVDIHYYWGQGTQVTVSS,low polyreactivity
8,QVQLQESGGGLVQAGGSLRLTCAASGSIYDDTYMGCYRQAPGKERELVATIDSGSTTNYADSVKGRITIRRDNAKNTVYLQMNSLKPEDTAVYFCGAADSHIDYFDYWGQGTQVTVSS,low polyreactivity
9,QVQLQESGGGLVQAGGSLRPRCAAGGTIFVSVNMGWYRHAPGEEREFVASITQGATTNYADSLIGRFTISRDNAKNTVYLQMNCQNQEDTAVYYCAVHESGGITFTYWGQGTQVTVSS,high polyreactivity
10,QVQLQESGGGLVQAGGSLRPSCAASGNIFVPFKMGWYRLAPGKERELVASINRGSTTNYADSVKGRFTISRDNAKNTVYLQMISLKPEDTAVYYCAAIAYPDIPTYLDYDSDYFYWDQGTQVTVSS,high polyreactivity
11,QVQLQESGGGLVQAGGSLRPSCAASGSISDGVPMGWYRQAPGEQRELVATTVLGATTNYADSVKGRFTISRGNAKNTVYLLMNSLKPEETAVYYCAARLRYDKGFSYWGQGTQVTVSS,low polyreactivity
12,QVQLQESGGGLVQAGGSLRQSCTASGTIYYTSAMGWYRHAPGKDREFVAAIASGSSTNYADSVKGRFTISRDNAKNTVYLKMNSLKPEVTAVYYCAASERVRNIYQYWGQGTQVSVSS,high polyreactivity
13,QVQLQESGGGLVQAGGSLRQSYAASGYIFPSLAKGWYRQAPGKEREFVAAIGRGSTNNYADSVKGRFTISRDNAKKTAYQQMNSLKPEDTAVYYCAAAASPLTRHLYWGQGTQVTVSS,low polyreactivity
14,QVQLQESGGGLVQAGGSLRRSCAASGSIFYHWAMGWYRQTPGKERELVASITSGGNTNYADSVKGRFTISRDNAKNTVYLPMDRLKPEDTAVYYCAADGYYGAWDLEYYYWGQGTQVTVSS,low polyreactivity
15,QVQLQESGGGLVQAGGSMRLSCAASGSISELRPMGWYRKAPGKERELVAGISTGGSTNYADSVKGRFTISRDNAKNTVYLQMNSQKPEDTAVYYCAAASYGEGTYDYWGQGTQVTVRS,high polyreactivity
16,QVQLQESGGGLVQAGGSMRLSCAASGSISELRPMGWYRQAPGKERELVAGISTGGSTNYADSVKGRFTISRDNAKNTVYLQMNSLKPEDTAVYYCAAASYGEGTYDYWGQGTQVTVRS,high polyreactivity
17,QVQLQESGGGLVQAGGSMRLSCAASGSISELSPMGWYRQAPGKERELVAGISTGGSTNYADSVKGRFTISRDNAKNTVYLQMNSLKPEDTAVYYCAAASYGEGSYDYWGQGTQVTVRS,high polyreactivity
18,QVQLQESGGGLVQAGGSMRLSCAASGYFSNYYSLGLYRQAPGKERELVAGIGTGTSTYYADSVKGRFTISRDNAKNTVYQQMNSLKPEDTAVYYCAAPLDTSSRIFDYWGQGTQVTVSS,low polyreactivity
19,QVQLQESGGGLVQAGGTLRLSCAASGSFSADEDMGWYRQEQGKEREFVAGISVGGNTNYADSVKGRFTISRENAKNTVYLQINSLKPEDTAVYYCAVLQDVYDALDYWAQGTQVTVSS,high polyreactivity
20,QVQLQESGGGLVQAGRSLRLSCEASGSISILQSMGWYRQAPGKEGELVAGINWGATTYYADSVKVRLTTSRDYAKNTVYLEMNSLKPEETAVYYCAVPTYYTYPLLYWGPGTQVTVSS,low polyreactivity
21,QVQLQESGGGLVQAGVSLRLSCAASGNINDADIMGCYRQAPGKERELVTSITDGGSTNYADSVKGRFTISRDNAKNTVYLQMNSLKPEDTAVYYCAAIAYPVIPTSFDYNSDYSYWGQGTQVTVSS,low polyreactivity
